Measured values reported in article PMC8782398.

Columns and labels:
[1] = biological target: human NOP receptor in HEK293 cells (human) (UniProt P41146)
[2] = biological target: human NOP receptor in HEK293 cells (human) (UniProt P41146); remark: listed apart in the source
[3] = biological target: human NOP receptor in HEK293 cells (human) (UniProt P41146); remark: listed apart in the source

human NOP receptor in HEK293 cells (human), sequence (P41146 whole entry): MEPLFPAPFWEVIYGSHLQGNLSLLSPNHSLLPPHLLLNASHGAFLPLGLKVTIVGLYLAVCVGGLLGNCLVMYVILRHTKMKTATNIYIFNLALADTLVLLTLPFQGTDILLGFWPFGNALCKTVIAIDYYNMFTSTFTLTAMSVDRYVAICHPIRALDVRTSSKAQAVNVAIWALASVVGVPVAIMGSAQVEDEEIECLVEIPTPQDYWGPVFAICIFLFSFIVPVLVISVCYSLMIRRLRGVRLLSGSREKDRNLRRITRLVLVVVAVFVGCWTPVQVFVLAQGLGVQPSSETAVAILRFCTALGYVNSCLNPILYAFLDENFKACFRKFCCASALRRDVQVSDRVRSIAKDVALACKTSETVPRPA

With “human MOP receptor in HEK293 cells (from UniProt P35372 1-400)” the ERK1/2 phosphorylation (fold over basal), 1 μM Dermorphin, HEK (MOP/NOP) cells, 2.5-30 min; peak at 10 min [1] was 11.8 fold, the GTPγ[35S] binding stimulated by De101, HEK (MOP/NOP) membranes: pEC50 [2] was 8.67 and the GTPγ[35S] binding stimulated by DeNO, HEK (MOP/NOP) membranes: pEC50 [2] was 7.63. For the same substance, the GTPγ[35S] binding stimulated by Dermorphin, HEK (MOP/NOP) membranes: pEC50 [2] was 7.6, the inhibition of cAMP formation by De101, HEK (MOP/NOP) cells: Emax (% inhibition) [2] was 86% and the inhibition of cAMP formation by De101, HEK (MOP/NOP) cells: pEC50 [2] was 8.81. For the same substance, the inhibition of cAMP formation by DeNO, HEK (MOP/NOP) cells: Emax (% inhibition) [2] was 88.6%, the inhibition of cAMP formation by DeNO, HEK (MOP/NOP) cells: pEC50 [2] was 7.55 and the inhibition of cAMP formation by Dermorphin & N/OFQ (co-administered), HEK (MOP/NOP) cells: Emax (% inhibition) [2] was 81.3%. It also gave an inhibition of cAMP formation by Dermorphin & UFP-101 (co-administered), HEK (MOP/NOP) cells: Emax (% inhibition) [2] of 84.4%, an inhibition of cAMP formation by Dermorphin & UFP-101 (co-administered), HEK (MOP/NOP) cells: pEC50 [2] of 8.95 and an inhibition of cAMP formation by Dermorphin, HEK (MOP/NOP) cells: Emax (% inhibition) [2] of 81.4%. The inhibition of cAMP formation by Dermorphin, HEK (MOP/NOP) cells: pEC50 [2] was 7.59, the inhibition of cAMP formation by N/OFQ, HEK (MOP/NOP) cells: Emax (% inhibition) [2] was 86.3% and the inhibition of cAMP formation by N/OFQ, HEK (MOP/NOP) cells: pEC50 [2] was 9.17. The ERK1/2 phosphorylation (fold over basal), 1 μM N/OFQ, HEK (MOP/NOP) cells, 2.5-30 min; peak at 7.5-10 min [3] was 5 fold.
